This note sets out measurements from the PETadex activity labels (doi:10.1002/cbic.201800097).

Substrate in this series: BHET
Nature of the series: Proxy for plastic degradation [Released monomer concentration (HPLC/LC-MS) (MHET+TPA)]. The note with it: pH 7.5.

B1: unnamed (protein)
chain: NPYARGPNPTAASLEASAGPFTVRSFTVSRPSGYGAGTVYYPTNAGGTVGAIAIVPGYTARQSSIKWWGPRLASHGFVVITIDTNSTLDQPSSRSSQQMAALRQVASLNGTSSSPIYGKVDTARMGVMGWAMGGGGSLISAANNPSLKAAAPQAPWDSSTNFSSVTVPTLIFACENDSIAPVNSSALPIYDSMSRNAKQFLEINGGSHSCANSGNSNQALIGKKGVAWMKRFMDNDTRYSTFACENPNSTRVSDFRTANCS
For the protein B1, the “Proxy for plastic degradation” value was 0.06 µM.

B2: unnamed (protein)
chain: NPYARGPNPTAASLEASAGPFTVRSFTVSRPSGYGAGTVYYPTNAGGTVGAIAIVPGYTARQSSIKWWGPRLASHGFVVITIDTNSTLDQPSSRSSQQMAALRQVASLNGTSSSPIYGKVDTARMGVMGWSMGGGGSLISAANNPSLKAAAPQAPWDSSTNFSSVTVPTLIFACENASIAPVNSSALPIYDSMSRNAKQFLEINGGSHSCANSGNSNQALIGKKGVAWMKRFMDNDTRYSTFACENPNSTRVSDFRTANCS
Regarding B2, the “Proxy for plastic degradation” value was determined as 0.03 µM.

B3: unnamed (protein)
chain: NPYARGPNPTAASLEASAGPFTVRSFTVSRPSGYGAGTVYYPTNAGGTVGAIAIVPGYTARQSSIKWWGPRLASHGFVVITIDTNSTLDQPSSRSSQQMAALRQVASLNGTSSSPIYGKVDTARMGVMGASMGGGGSLISAANNPSLKAAAPQAPWDSSTNFSSVTVPTLIFACENDSIAPVNSSALPIYDSMSRNAKQFLEINGGSHSCANSGNSNQALIGKKGVAWMKRFMDNDTRYSTFACENPNSTRVSDFRTANCS
For the protein B3, the “Proxy for plastic degradation” value was 0.23 µM.
